According to the Human Domainome abundance scans (Beltran et al. 2025):
± gives the uncertainty stated by the source.

B1: Homeobox expressed in ES cells 1, residues 110 to 165; numbered along this chain, Q9UBX0 (parent)
chain: RPRTAFTQNQIEVLENVFRVNCYPGIDIREDLAQKLNLEEDRIQIWFQNRRAKLKR

Variants of: B1
Test: abundance fitness (aPCA) (normalised: wild type 0, dead -1); higher = more abundant; growth selection in yeast, the domain comes from the species named
Conditions: Homo sapiens
F6W gave an abundance fitness of -0.365 ± 0.12. F6A gave an abundance fitness of -0.865 ± 0.25. F6G showed an abundance fitness of -0.797 ± 0.11. In the case of F6I, the abundance fitness is reported as -0.075 ± 0.2. Work on F6K yielded an abundance fitness of -0.703 ± 0.13. Variant F6T has an abundance fitness of -0.859 ± 0.33. In the case of F6M, the abundance fitness is reported as 0.123 ± 0.14. With F6N the abundance fitness was -0.454 ± 0.46. F6Q showed an abundance fitness of -0.678 ± 0.36. For F6C, the abundance fitness was -0.673 ± 0.22. In the case of F6S, the abundance fitness is reported as -0.791 ± 0.14. Variant F6D has an abundance fitness of -0.599 ± 0.32. Work on F6V yielded an abundance fitness of -0.155 ± 0.37. For F6R, the abundance fitness was -0.688 ± 0.14. F6Y gave an abundance fitness of -0.065 ± 0.21. Variant R1C has an abundance fitness of 0.12 ± 0.33. In the case of R1G, the abundance fitness is reported as -0.505 ± 0.38. In the case of R1A, the abundance fitness is reported as 0.352 ± 0.4. R1V showed an abundance fitness of 0.134 ± 0.27. Work on R1Y yielded an abundance fitness of 0.406 ± 0.46. For R1T, the abundance fitness was -0.455 ± 0.49. R1S showed an abundance fitness of -0.482 ± 0.43. For A5C, the abundance fitness was 0.377 ± 0.092. With A5P the abundance fitness was 0.295 ± 0.068. With A5K the abundance fitness was 0.412 ± 0.062. In the case of A5D, the abundance fitness is reported as 0.653 ± 0.068. A5M gave an abundance fitness of 0.609 ± 0.061. A5R gave an abundance fitness of 0.132 ± 0.073. A5F showed an abundance fitness of 0.324 ± 0.076. Work on A5E yielded an abundance fitness of 0.596 ± 0.093. In the case of A5L, the abundance fitness is reported as 0.249 ± 0.057. Work on A5I yielded an abundance fitness of 0.275 ± 0.068. Work on A5H yielded an abundance fitness of 0.164 ± 0.083. A5W showed an abundance fitness of -0.21 ± 0.069. Variant A5Q has an abundance fitness of 0.384 ± 0.068. In the case of A5V, the abundance fitness is reported as 0.296 ± 0.067. With A5N the abundance fitness was 0.391 ± 0.07. A5Y gave an abundance fitness of 0.429 ± 0.059. A5S gave an abundance fitness of 0.424 ± 0.052. T7G gave an abundance fitness of -0.401 ± 0.098. T7E showed an abundance fitness of -0.352 ± 0.24. In the case of T7H, the abundance fitness is reported as -0.312 ± 0.3. In the case of T7L, the abundance fitness is reported as -0.417 ± 0.13. Variant T7N has an abundance fitness of -0.084 ± 0.25. For T7A, the abundance fitness was -0.068 ± 0.096. In the case of T7W, the abundance fitness is reported as -0.845 ± 0.28. T7P gave an abundance fitness of -0.664 ± 0.29. In the case of T7M, the abundance fitness is reported as -0.288 ± 0.35. With T7R the abundance fitness was -0.587 ± 0.2. Variant T7K has an abundance fitness of -0.245 ± 0.17. In the case of T7S, the abundance fitness is reported as 0.112 ± 0.073. Work on T7C yielded an abundance fitness of -0.666 ± 0.23. In the case of T7F, the abundance fitness is reported as -0.701 ± 0.45. T7D gave an abundance fitness of 0.161 ± 0.23. Variant T7V has an abundance fitness of -0.681 ± 0.093. Variant N9D has an abundance fitness of 0.187 ± 0.27. In the case of N9F, the abundance fitness is reported as -0.243 ± 0.25. N9K showed an abundance fitness of -0.149 ± 0.26. N9L gave an abundance fitness of 0.045 ± 0.14. N9H gave an abundance fitness of 0.148 ± 0.14. N9I showed an abundance fitness of 0.118 ± 0.2. Work on N9V yielded an abundance fitness of 0.017 ± 0.075. N9G gave an abundance fitness of -0.103 ± 0.1. N9T showed an abundance fitness of -0.132 ± 0.088. N9A gave an abundance fitness of -0.169 ± 0.18. In the case of N9R, the abundance fitness is reported as -0.042 ± 0.13. In the case of N9Y, the abundance fitness is reported as 0.044 ± 0.07. With N9P the abundance fitness was -0.292 ± 0.12. N9E showed an abundance fitness of 0.288 ± 0.15. Work on N9C yielded an abundance fitness of -0.293 ± 0.26. Work on N9S yielded an abundance fitness of -0.004 ± 0.13. N9M showed an abundance fitness of 0.381 ± 0.068. In the case of T4H, the abundance fitness is reported as 0.069 ± 0.32. Variant T4G has an abundance fitness of 0.129 ± 0.091. T4I showed an abundance fitness of -0.007 ± 0.27. In the case of T4M, the abundance fitness is reported as 0.634 ± 0.084. For T4F, the abundance fitness was 0.052 ± 0.2. For T4K, the abundance fitness was 0.116 ± 0.1. For T4P, the abundance fitness was 0.125 ± 0.17. T4N gave an abundance fitness of -0.067 ± 0.13. T4C showed an abundance fitness of 0.74 ± 0.16. For T4D, the abundance fitness was -0.192 ± 0.42. For T4V, the abundance fitness was -0.003 ± 0.15. With T4Y the abundance fitness was -0.163 ± 0.25. T4E gave an abundance fitness of 0.402 ± 0.096. T4S gave an abundance fitness of -0.187 ± 0.082. With T4R the abundance fitness was 0.171 ± 0.12. Work on T4Q yielded an abundance fitness of 0.635 ± 0.14. For T4W, the abundance fitness was -0.501 ± 0.2. Work on T4A yielded an abundance fitness of -0.164 ± 0.11. For Q10D, the abundance fitness was -0.287 ± 0.14. With Q10L the abundance fitness was -0.744 ± 0.18. Q10E gave an abundance fitness of -0.278 ± 0.15. Work on Q10M yielded an abundance fitness of 0.017 ± 0.43. In the case of Q10R, the abundance fitness is reported as -0.662 ± 0.14. For Q10P, the abundance fitness was -0.922 ± 0.26. Work on Q10V yielded an abundance fitness of -0.279 ± 0.17. With Q10I the abundance fitness was -0.404 ± 0.49. Q10H showed an abundance fitness of -0.594 ± 0.14. In the case of Q10G, the abundance fitness is reported as -0.574 ± 0.11. With Q10F the abundance fitness was -0.993 ± 0.32. For R3D, the abundance fitness was 0.126 ± 0.09. R3T showed an abundance fitness of -0.013 ± 0.16. R3F showed an abundance fitness of 0.376 ± 0.19. R3W gave an abundance fitness of -0.674 ± 0.4. For R3Q, the abundance fitness was 0.27 ± 0.12. For R3G, the abundance fitness was 0.178 ± 0.077. R3H gave an abundance fitness of -0.433 ± 0.44. With R3L the abundance fitness was -0.008 ± 0.074. For R3K, the abundance fitness was -0.089 ± 0.091. In the case of R3S, the abundance fitness is reported as -0.181 ± 0.17. In the case of R3M, the abundance fitness is reported as 0.15 ± 0.14. Variant R3E has an abundance fitness of 0.24 ± 0.099. With R3Y the abundance fitness was 0.682 ± 0.17. Variant R3C has an abundance fitness of -0.462 ± 0.44. R3I showed an abundance fitness of 0.485 ± 0.11. Work on R3N yielded an abundance fitness of -0.145 ± 0.28. R3A showed an abundance fitness of 0.182 ± 0.063. For E12A, the abundance fitness was -0.257 ± 0.16. E12C showed an abundance fitness of -0.341 ± 0.25. Variant P2D has an abundance fitness of 0.699 ± 0.075. In the case of P2T, the abundance fitness is reported as 0.126 ± 0.12. In the case of P2L, the abundance fitness is reported as 0.297 ± 0.068. With P2R the abundance fitness was -0.031 ± 0.13. P2Y gave an abundance fitness of 0.772 ± 0.17. P2Q showed an abundance fitness of 0.386 ± 0.19. P2C showed an abundance fitness of 0.048 ± 0.22. In the case of P2G, the abundance fitness is reported as 0.309 ± 0.065. For P2F, the abundance fitness was 0.425 ± 0.14. P2E gave an abundance fitness of 0.734 ± 0.11. Work on P2K yielded an abundance fitness of 0.522 ± 0.11. In the case of P2V, the abundance fitness is reported as 0.308 ± 0.079. In the case of P2H, the abundance fitness is reported as 0.545 ± 0.18. P2W showed an abundance fitness of -0.046 ± 0.16. In the case of P2A, the abundance fitness is reported as 0.028 ± 0.12. P2M showed an abundance fitness of 0.333 ± 0.16. In the case of Q8T, the abundance fitness is reported as -0.244 ± 0.17. Variant Q8F has an abundance fitness of -0.441 ± 0.29. Q8M gave an abundance fitness of -0.168 ± 0.12. With Q8S the abundance fitness was 0.002 ± 0.1. With Q8C the abundance fitness was -0.183 ± 0.18. Q8G gave an abundance fitness of -0.416 ± 0.078. Q8E showed an abundance fitness of -0.019 ± 0.14. Q8V showed an abundance fitness of 0.122 ± 0.1. Work on Q8W yielded an abundance fitness of -0.598 ± 0.36. Work on Q8H yielded an abundance fitness of -0.373 ± 0.38. For Q8P, the abundance fitness was -0.082 ± 0.16. Variant Q8Y has an abundance fitness of -0.264 ± 0.26. Q8D gave an abundance fitness of -0.094 ± 0.082. Work on Q8K yielded an abundance fitness of -0.179 ± 0.28. Q8A gave an abundance fitness of 0.158 ± 0.065. With I11P the abundance fitness was -0.598 ± 0.22. I11Q gave an abundance fitness of -0.114 ± 0.28. Variant I11C has an abundance fitness of -0.628 ± 0.25. I11Y gave an abundance fitness of -0.46 ± 0.38. With I11R the abundance fitness was -0.472 ± 0.13. In the case of I11D, the abundance fitness is reported as -0.072 ± 0.28. Work on I11T yielded an abundance fitness of -0.187 ± 0.13. I11V showed an abundance fitness of -0.145 ± 0.083. Work on I11E yielded an abundance fitness of 0.274 ± 0.12. I11A gave an abundance fitness of -0.344 ± 0.17. I11K showed an abundance fitness of -0.237 ± 0.34. With I11G the abundance fitness was -0.891 ± 0.27. I11F showed an abundance fitness of -0.648 ± 0.42. I11W gave an abundance fitness of -0.292 ± 0.2. I11N showed an abundance fitness of 0.091 ± 0.37. For I11M, the abundance fitness was -0.652 ± 0.26.
